# Test results taken from patent publication US20140249091A1 (BIOUSIAN BIOSYSTEMS, published 2014).
# Read-outs that look alike come from different tables or passages of the source. Non-standard residues stand in square brackets, D forms with d. *: point of attachment. βGlc = OC[C@H]1O[C@@H](*)[C@H](O)[C@@H](O)[C@@H]1O; Nle = CCCC[C@H](N)C(=O)O; Nva = CCC[C@H](N)C(=O)O
# What was measured:
# human mu opioid receptor [1] = molecular target: T1, human mu opioid receptor (human, UniProt P35372 1-400); assay: cell-based or functional assay
# T1 construct: whole, on cells; Assayed as CHO cell membranes; also called hMOR; MOR
# T1 sequence (P35372 whole entry): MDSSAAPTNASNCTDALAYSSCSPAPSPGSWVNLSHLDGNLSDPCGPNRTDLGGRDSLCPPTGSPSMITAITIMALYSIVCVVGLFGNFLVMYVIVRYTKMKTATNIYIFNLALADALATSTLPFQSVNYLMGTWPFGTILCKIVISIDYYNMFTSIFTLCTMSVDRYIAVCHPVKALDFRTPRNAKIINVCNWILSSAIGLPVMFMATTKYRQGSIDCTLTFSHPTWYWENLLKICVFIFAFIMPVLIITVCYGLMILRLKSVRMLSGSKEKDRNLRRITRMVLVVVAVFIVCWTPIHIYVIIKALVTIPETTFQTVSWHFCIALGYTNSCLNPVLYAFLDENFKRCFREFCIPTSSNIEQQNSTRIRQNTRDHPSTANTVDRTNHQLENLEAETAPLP
# [2] = molecular target: T2, human delta opioid receptor (human, UniProt P41143 1-372); assay: cell-based or functional assay
# T2 sequence (P41143 whole entry, stated change not applied): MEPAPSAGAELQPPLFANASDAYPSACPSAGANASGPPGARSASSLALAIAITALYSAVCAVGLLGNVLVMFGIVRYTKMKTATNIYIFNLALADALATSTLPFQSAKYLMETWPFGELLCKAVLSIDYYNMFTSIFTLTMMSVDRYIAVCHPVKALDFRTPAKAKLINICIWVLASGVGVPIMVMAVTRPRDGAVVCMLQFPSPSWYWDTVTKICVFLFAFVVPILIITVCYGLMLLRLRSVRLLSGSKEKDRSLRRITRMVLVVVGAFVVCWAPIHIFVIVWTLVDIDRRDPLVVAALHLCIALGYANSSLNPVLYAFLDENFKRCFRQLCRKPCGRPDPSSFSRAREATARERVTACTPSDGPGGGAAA
# human mu opioid receptor [3] = molecular target: T1, human mu opioid receptor; assay: competition vs [3H]DAMGO, hMOR CHO cell membranes (summary table)
# human mu opioid receptor [4] = molecular target: T1, human mu opioid receptor; assay: competition vs 0.25 nM [3H]DAMGO, hMOR CHO cell membranes
# [5] = molecular target: human kappa opioid receptor (human) (UniProt P41145); assay: inhibition of [3H]U69,593 binding at 10 uM peptide, hKOR CHO cell membranes
# Sequence of human kappa opioid receptor (human) (P41145 whole entry): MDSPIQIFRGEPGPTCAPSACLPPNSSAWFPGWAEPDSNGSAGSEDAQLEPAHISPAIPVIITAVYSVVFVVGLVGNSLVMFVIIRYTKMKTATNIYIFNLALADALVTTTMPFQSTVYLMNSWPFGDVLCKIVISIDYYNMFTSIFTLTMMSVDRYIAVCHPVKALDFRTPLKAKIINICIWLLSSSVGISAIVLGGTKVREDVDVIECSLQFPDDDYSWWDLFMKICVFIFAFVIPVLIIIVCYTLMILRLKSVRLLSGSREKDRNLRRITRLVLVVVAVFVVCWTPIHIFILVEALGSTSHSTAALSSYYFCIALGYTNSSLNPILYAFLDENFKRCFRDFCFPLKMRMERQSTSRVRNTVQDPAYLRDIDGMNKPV
# [6] = molecular target: T2, human delta opioid receptor; assay: competition vs 0.2 nM [3H]naltrindole, hDOR CHO cell membranes
# [7] = molecular target: T2, human delta opioid receptor; assay: competition vs [3H]naltrindole, hDOR CHO cell membranes; reference DPDPE
# [8] = molecular target: T2, human delta opioid receptor; assay: competition vs [3H]naltrindole, hDOR CHO cell membranes (summary table)
# [9] = molecular target: T2, human delta opioid receptor; assay: radioligand competition; reference hMOR
# [10] = molecular target: T2, human delta opioid receptor; assay: competition vs 0.2 nM [3H]naltrindole, hDOR CHO cell membranes; remark: listed apart in the source
# [11] = molecular target: human kappa opioid receptor (human) (UniProt P41145); assay: inhibition of [3H]U69,593 binding at 10 uM peptide, hKOR CHO cell membranes; remark: listed apart in the source
# human mu opioid receptor [12] = molecular target: T1, human mu opioid receptor; assay: competition vs 0.25 nM [3H]DAMGO, hMOR CHO cell membranes; remark: listed apart in the source
molecule,measurement,setting,value
11009 (H2N-YaFE-Nle-Nle-T-amide) (peptide),"EMax (%), agonist properties, [35S]GTPγS binding",human mu opioid receptor [1],42%
same,"EC50 (nM), agonist properties, [35S]GTPγS binding",[2],12 nM
same,"EMax (%), agonist properties, [35S]GTPγS binding",[2],67%
DPDPE (peptide),Ki,human mu opioid receptor [3],180 nM
"H-Y[dA]FE[Nle][Nle]T(βGlc)-NH2 (SMILES CCCC[C@H](NC(=O)[C@H](CCC(=O)O)NC(=O)[C@H](Cc1ccccc1)NC(=O)[C@@H](C)NC(=O)[C@@H](N)Cc1ccc(O)cc1)C(=O)N[C@@H](CCCC)C(=O)N[C@H](C(N)=O)[C@@H](C)O[C@@H]1O[C@H](CO)[C@@H](O)[C@H](O)[C@H]1O) [11008 = Deltorphin B4, H2N-YaFE-Nle-Nle-T(beta-D-Glc)-amide]",Ki,human mu opioid receptor [3],1100 nM
same,IC50,human mu opioid receptor [4],1500 nM
same,Ki,human mu opioid receptor [4],1100 nM
same,Max Inhib at 10 uM (%),[5],2.9%
same,IC50,[6],42 nM
same,Ki,[6],14 nM
same,fold lower affinity than DPDPE,[7],~3 fold
same,Ki,[8],14 nM
same,Selectivity Delta:Mu,[9],79 fold (Ki mu over Ki delta)
same,"EC50 (nM), agonist properties, [35S]GTPγS binding",[2],12 nM
"H-Y[dA]FE[Nva][Nva]S(βGlc)-NH2 (SMILES CCC[C@H](NC(=O)[C@H](CCC)NC(=O)[C@H](CCC(=O)O)NC(=O)[C@H](Cc1ccccc1)NC(=O)[C@@H](C)NC(=O)[C@@H](N)Cc1ccc(O)cc1)C(=O)N[C@@H](CO[C@@H]1O[C@H](CO)[C@@H](O)[C@H](O)[C@H]1O)C(N)=O, also called glycopeptide 11005) [11005 = Deltorphin B1, H2N-YaFE-Nva-Nva-S(beta-D-Glc)-amide]",Ki,human mu opioid receptor [3],710 nM
same,IC50,[10],61 nM
same,Ki,[10],20 nM
same,Ki,[8],20 nM
same,Selectivity Delta:Mu,[9],36 fold (Ki mu over Ki delta)
same,Max Inhib at 10 uM (%),[11],5.3%
same,IC50,human mu opioid receptor [12],1000 nM
same,Ki,human mu opioid receptor [12],710 nM
